Assay results as given in publication PMC2656774 (Cell, 2009).

Molecular target: human eIF4A1, full-length (human, UniProt P60842 1-406)
Assay: SPR

Sequence of human eIF4A1, full-length (P60842 whole entry): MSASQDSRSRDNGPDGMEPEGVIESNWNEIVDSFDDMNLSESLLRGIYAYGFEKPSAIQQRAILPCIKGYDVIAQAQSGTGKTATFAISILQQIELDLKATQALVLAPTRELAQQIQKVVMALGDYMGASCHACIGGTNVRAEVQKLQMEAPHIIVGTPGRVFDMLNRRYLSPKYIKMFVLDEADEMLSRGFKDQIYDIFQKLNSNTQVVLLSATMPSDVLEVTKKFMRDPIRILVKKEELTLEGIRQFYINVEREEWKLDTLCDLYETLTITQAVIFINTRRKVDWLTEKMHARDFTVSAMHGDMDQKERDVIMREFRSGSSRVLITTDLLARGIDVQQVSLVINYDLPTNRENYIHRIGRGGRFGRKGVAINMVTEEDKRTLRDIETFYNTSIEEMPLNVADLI

binding result: binds
B1: human eIF4H isoform 2 (natural protein)
chain: not shown
